Test results: publication PMC12486813
pKd: −log10 of the molar value.

Target: FcγRI (CD64) (UniProt P12314)
Assay: BLI; binding-dissociation kinetics of FcγRI (CD64) with the antibody; who was immobilised not stated for this experiment; KD is the average of two independent experiments

Chain of UniProt P12314 (P12314 16-374): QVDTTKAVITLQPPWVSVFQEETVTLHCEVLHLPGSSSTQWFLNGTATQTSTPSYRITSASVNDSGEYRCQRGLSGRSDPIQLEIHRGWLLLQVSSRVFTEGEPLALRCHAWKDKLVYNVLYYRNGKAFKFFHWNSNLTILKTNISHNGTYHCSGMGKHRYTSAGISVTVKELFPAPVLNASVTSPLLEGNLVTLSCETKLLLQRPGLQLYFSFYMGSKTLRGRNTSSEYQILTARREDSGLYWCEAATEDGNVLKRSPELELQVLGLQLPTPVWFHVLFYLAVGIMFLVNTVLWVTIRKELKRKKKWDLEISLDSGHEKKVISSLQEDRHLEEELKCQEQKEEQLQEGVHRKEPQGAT

Q: With 5C8 (LALA) (antibody) as the substance, how does the pKd read?
A: 5.32
